Results as given in PMC13230913 (Nature Communications, 2026).

T1: stabilized, soluble prefusion measles virus F ectodomain (F_ECTO E170G, E455G, residues 1-495) (Measles virus strain Ichinose-B95a, stabilised)
T1 chain 1: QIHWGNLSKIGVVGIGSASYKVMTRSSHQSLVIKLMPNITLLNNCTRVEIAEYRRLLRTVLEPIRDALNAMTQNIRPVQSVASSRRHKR
T1 chain 2: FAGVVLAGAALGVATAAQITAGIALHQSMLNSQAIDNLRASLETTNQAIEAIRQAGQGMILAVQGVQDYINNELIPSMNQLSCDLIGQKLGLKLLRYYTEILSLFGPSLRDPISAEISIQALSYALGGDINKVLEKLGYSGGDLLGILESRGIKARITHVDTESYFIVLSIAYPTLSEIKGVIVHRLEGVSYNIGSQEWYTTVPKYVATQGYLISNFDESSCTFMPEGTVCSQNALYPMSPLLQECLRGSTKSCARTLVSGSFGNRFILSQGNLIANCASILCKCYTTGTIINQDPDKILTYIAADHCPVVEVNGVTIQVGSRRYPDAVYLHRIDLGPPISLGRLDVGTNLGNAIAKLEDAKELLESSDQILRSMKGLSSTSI

B1: Y10F Fab (Fab, V domains shown)
VH: QVQLQQSGAELMKPGASVKISCKAAGYTFSNYWIEWVKQRPGHGLEWIGEILPGNSYTNYNEKFRGKATITADTSSNTAYMQLSSLTSEDSAVYYCASPLSGNYVRFAYWGQGTLVTVST
VL: QIVLSQSPAILSASPGEKVTMTCRATSSVVYMHWYQQKPGSSPKPWIYATSNLASGVPTRFSGSGSGTSYSLTISRVEAEDAATYYCQQWNSNPYTFGGGTKLEIK
B2: chimeric monoclonal antibody Y10F (mouse Fab / human Fc) (antibody, V domains shown)
VH: B1 VH
VL: B1 VL
B3: chimeric monoclonal antibody H8 (mouse Fab / human Fc) (antibody, V domains shown)
VH: QVQLQQSGAELVRPGTSVKISCKASGYTFINYWLGWVKQRPGHGLEWIGDIYPGGGHTKYNEKFKGKATLTADTSSSTAYMQLSSLTSEDSAVFFCARSGVGSSYYYWGQGTTLTVSS
VL: DIVLTQSPASLAVSLGQRATISCRASKSVSSSGYSFLHWYQQKPGQPPKLLIYLASNLDSGVPARFSGSGSGTDFTLNIHPVEEEDATTYYCQHSWELPTFGGGTKLEIK
B4: chimeric monoclonal antibody 77.1 (mouse Fab / human Fc) (antibody, V domains shown)
VH: DVQLQESGPGLVKPSQSLSLTCTVSGYSITSDYAWNWIRQFPGNKLEWMGYISYTLTTGYNPSLKSRISITRDSSKNQFFLQLNSVTTEDTATYYCARSGWLLPYWYFDVWGAGTTVTVSS
VL: DVQITQSPSYLAASPGETITINCRASKSISKYLAWYQEKPGKTNELLIYSGSTLQSGIPSRFRGSGSGTDFTLTISSLEPEDFAMYYCQQHNEYTLTFGGGTKLELK

Experiments:
[1] = molecular target: T1, stabilized, soluble prefusion measles …; assay: cell-based or functional assay
[2] = molecular target: T1, stabilized, soluble prefusion measles …; assay: SPR
[3] = molecular target: measles virus B3 F protein with L454W (destabilized prefusion conformation), on cells (Measles virus genotype B3)

Binder	melting temperature of F_ECTO with Fab by nanoDSF (F_ECTO alone 47.2 °C) [1] [°C]	Kd [2] [nM]	koff [2] [s⁻¹]	kon [2] [M⁻¹ s⁻¹]	IC90 of plaque reduction neutralization test (PRNT), virus B3 F-L454W [3] [nM]
B1	55.5				
B2		99.9	0.00179	17900 ± 300	
B3		3.17	7.48e-05	23600 ± 810	23
B4		1.71	0.000207	121000 ± 2000	
